Measurements as given in paper PMC3443293 (Nature structural & molecular biology, 2012).

B2: human nectin-1 ectodomain (D1-D3) (domain or fragment)
chain: QVVQVNDSMYGFIGTDVVLHCSFANPLPSVKITQVTWQKSTNGSKQNVAIYNPSMGVSVLAPYRERVEFLRPSFTDGTIRLSRLELEDEGVYICEFATFPTGNRESQLNLTVMAKPTNWIEGTQAVLRAKKGQDDKVLVATCTSANGKPPSVVSWETRLKGEAEYQEIRNPNGTVTVISRYRLVPSREAHQQSLACIVNYHMDRFKESLTLNVQYEPEVTIEGFDGNWYLQRMDVKLTCKADANPPATEYHWTTLNGSLPKGVEAQNRTLFFKGPINYSLAGTYICEATNPIGTRSGQVEVNITEFP
modifications: natively glycosylated (N-linked glycans)

Tests used:
AUC = molecular target: the molecule itself; experiment: AUC
[1] = molecular target: human nectin-3 ectodomain (D1-D3) (human, UniProt Q9NQS3 58-359, natively glycosylated (N-linked glycans)); experiment: SPR
[2] = molecular target: B2; experiment: AUC
crystal structure = molecular target: the molecule itself; experiment: crystal structure

B1: human nectin-1 ectodomain (D1-D3) F129D (domain or fragment)
chain: QVVQVNDSMYGFIGTDVVLHCSFANPLPSVKITQVTWQKSTNGSKQNVAIYNPSMGVSVLAPYRERVEFLRPSFTDGTIRLSRLELEDEGVYICEFATDPTGNRESQLNLTVMAKPTNWIEGTQAVLRAKKGQDDKVLVATCTSANGKPPSVVSWETRLKGEAEYQEIRNPNGTVTVISRYRLVPSREAHQQSLACIVNYHMDRFKESLTLNVQYEPEVTIEGFDGNWYLQRMDVKLTCKADANPPATEYHWTTLNGSLPKGVEAQNRTLFFKGPINYSLAGTYICEATNPIGTRSGQVEVNITEFP
modifications: natively glycosylated
- Kd (AUC): 820 µM
- stoichiometry N (AUC): 2

Binder: B2
- Kd (AUC): 17.5 µM
- stoichiometry N (AUC): 2
- binding result [1]: binds

B3: mouse nectin-1 ectodomain (D1-D3) (domain or fragment)
chain: QVVQVNDSMYGFIGTDVVLHCSFANPLPSVKITQVTWQKASNGSKQNMAIYNPTMGVSVLPPYEKRVEFLRPSFIDGTIRLSGLELEDEGMYICEFATFPTGNRESQLNLTVMAKPTNWIEGTRAVLRARKGQDDKVLVATCTSANGKPPSAVSWETRLKGEAEYQEIRNPNGTVTVISRYRLVPSREAHRQSLACIVNYHLDRFRESLTLNVQYEPEVTIEGFDGNWYLQRTDVKLTCKADANPPATEYHWTTLNGSLPKGVEAQNRTLFFRGPITYSLAGTYICEATNPIGTRSGQVEVNITEFP
modifications: natively glycosylated
- Kd (AUC): 22.6 µM
- stoichiometry N (AUC): 2

B4: mouse nectin-2 ectodomain (D1-D3) (domain or fragment)
chain: QDVRVRVLPEVRGRLGGTVELPCHLLPPTTERVSQVTWQRLDGTVVAAFHPSFGVDFPNSQFSKDRLSFVRARPETNADLRDATLAFRGLRVEDEGNYTCEFATFPNGTRRGVTWLRVIAQPENHAEAQEVTIGPQSVAVARCVSTGGRPPARITWISSLGGEAKDTQEPGIQAGTVTIISRYSLVPVGRADGVKVTCRVEHESFEEPILLPVTLSVRYPPEVSISGYDDNWYLGRSEAILTCDVRSNPEPTDYDWSTTSGVFPASAVAQGSQLLVHSVDRMVNTTFICTATNAVGTGRAEQVILVRESP
modifications: natively glycosylated
- Kd (AUC): 1.09 µM
- stoichiometry N (AUC): 2

B5: mouse nectin-4 ectodomain (D1-D3) (domain or fragment)
chain: GELETSDVVTVVLGQDAKLPCFYRGDPDEQVGQVAWARVDPNEGIRELALLHSKYGLHVNPAYEDRVEQPPPPRDPLDGSVLLRNAVQADEGEYECRVSTFPAGSFQARMRLRVLVPPLPSLNPGPPLEEGQGLTLAASCTAEGSPAPSVTWDTEVKGTQSSRSFTHPRSAAVTSEFHLVPSRSMNGQPLTCVVSHPGLLQDRRITHTLQVAFLAEASVRGLEDQNLWQVGREGATLKCLSEGQPPPKYNWTRLDGPLPSGVRVKGDTLGFPPLTTEHSGVYVCHVSNELSSRDSQVTVEVLDPEDPG
modifications: natively glycosylated
- Kd (AUC): 278 µM
- stoichiometry N (AUC): 2

B6: mouse nectin-2 D1-2 fragment (domain or fragment)
chain: QDVRVRVLPEVRGRLGGTVELPCHLLPPTTERVSQVTWQRLDGTVVAAFHPSFGVDFPNSQFSKDRLSFVRARPETNADLRDATLAFRGLRVEDEGNYTCEFATFPNGTRRGVTWLRVIAQPENHAEAQEVTIGPQSVAVARCVSTGGRPPARITWISSLGGEAKDTQEPGIQAGTVTIISRYSLVPVGRADGVKVTCRVEHESFEEPILLPVTLSVRY
modifications: natively glycosylated (N-linked glycans)
- Kd (AUC): 7.62 µM
- stoichiometry N (AUC): 2

B7: human nectin-4 ectodomain (D1-D3) (domain or fragment)
chain: GELETSDVVTVVLGQDAKLPCFYRGDSGEQVGQVAWARVDAGEGAQELALLHSKYGLHVSPAYEGRVEQPPPPRNPLDGSVLLRNAVQADEGEYECRVSTFPAGSFQARLRLRVLVPPLPSLNPGPALEEGQGLTLAASCTAEGSPAPSVTWDTEVKGTTSSRSFKHSRSAAVTSEFHLVPSRSMNGQPLTCVVSHPGLLQDQRITHILHVSFLAEASVRGLEDQNLWHIGREGAMLKCLSEGQPPPSYNWTRLDGPLPSGVRVDGDTLGFPPLTTEHSGIYVCHVSNEFSSRDSQVTVDVLDPQ
modifications: natively glycosylated
- Kd (AUC): 153 µM
- stoichiometry N (AUC): 2
- binding result [2]: binds

B8: human nectin-2 ectodomain (D1-D3) (domain or fragment)
chain: QDVRVQVLPEVRGQLGGTVELPCHLLPPVPGLYISLVTWQRPDAPANHQNVAAFHPKMGPSFPSPKPGSERLSFVSAKQSTGQDTEAELQDATLALHGLTVEDEGNYTCEFATFPKGSVRGMTWLRVIAKPKNQAEAQKVTFSQDPTTVALCISKEGRPPARISWLSSLDWEAKETQVSGTLAGTVTVTSRFTLVPSGRADGVTVTCKVEHESFEEPALIPVTLSVRYPPEVSISGYDDNWYLGRTDATLSCDVRSNPEPTGYDWSTTSGTFPTSAVAQGSQLVIHAVDSLFNTTFVCTVTNAVGMGRAEQVIFVRETP
modifications: natively glycosylated
- Kd (AUC): 0.392 µM
- stoichiometry N (AUC): 2
- binding result [1]: binds

B9: human nectin-4 D1-2 fragment (domain or fragment)
chain: GELETSDVVTVVLGQDAKLPCFYRGDSGEQVGQVAWARVDAGEGAQELALLHSKYGLHVSPAYEGRVEQPPPPRNPLDGSVLLRNAVQADEGEYECRVSTFPAGSFQARLRLRVLVPPLPSLNPGPALEEGQGLTLAASCTAEGSPAPSVTWDTEVKGTTSSRSFKHSRSAAVTSEFHLVPSRSMNGQPLTCVVSHPGLLQDQRITHILHVS
- binding result (crystal structure): binds
